In patent publication US20160263155A1, “T CELL RECEPTORS DIRECTED AGAINST THE PREFERENTIALLY EXPRESSED ANTIGEN OF MELANOMA AND USES THEREOF” (LEIDEN UNIVERSITY MEDICAL CENTER, priority 2015, published 2016):
Numbering of substitutions follows the chain as printed. Names may count otherwise.

B1: F404W (protein)
chain: GFGDVGALESLRGNADLAYILSMEPCGHCLIINNVNFCRESGLRTRTGSNIDCEKLRRRFSSLHFMVEVKGDLTAKKMVLALLELAQQDHGALDCCVVVILSHGCQASHLQFPGAVYGTDGCPVSVEKIVNIFNGTSCPSLGGKPKLFFIQACGGEQKDHGFEVASTSPEDESPGSNPEPDATPFQEGLRTFDQLDAISSLPTPSDIFVSYSTFPGFVSWRDPKSGSWYVETLDDIFEQWAHSEDLQSLLLRVANAVSVKGIYKQMPGCWNFLRKKLFFKTS
B2: A316G (protein)
chain: B1 chain with A182G, W270F
B3: Y153F (protein)
chain: B1 chain with Y19F, W270F
B4: C403A (protein)
chain: B1 chain with C269A, W270F
B5: P318A (protein)
chain: B1 chain with P184A, W270F
B6: N405F (protein)
chain: B1 chain with W270F, N271F
B7: D315A (protein)
chain: B1 chain with D181A, W270F
B8: Y153A (protein)
chain: B1 chain with Y19A, W270F
B9: F406T (protein)
chain: B1 chain with W270F, F272T
B10: T317C (protein)
chain: B1 chain with T183C, W270F
B11: F319W (protein)
chain: B1 chain with F185W, W270F
B12: ^316ATPF^319AVPI: Caspase-9 mutant (SEQ ID NOS 97 and 98) (SMAC/Diablo) (protein, UniProt P55211 1-416, looked up, variant T317V F319I)
chain: MDEADRRLLRRCRLRLVEELQVDQLWDALLSRELFRPHMIEDIQRAGSGSRRDQARQLIIDLETRGSQALPLFISCLEDTGQDMLASFLRTNRQAAKLSKPTLENLTPVVLRPEIRKPEVLRPETPRPVDIGSGGFGDVGALESLRGNADLAYILSMEPCGHCLIINNVNFCRESGLRTRTGSNIDCEKLRRRFSSLHFMVEVKGDLTAKKMVLALLELAQQDHGALDCCVVVILSHGCQASHLQFPGAVYGTDGCPVSVEKIVNIFNGTSCPSLGGKPKLFFIQACGGEQKDHGFEVASTSPEDESPGSNPEPDAVPIQEGLRTFDQLDAISSLPTPSDIFVSYSTFPGFVSWRDPKSGSWYVETLDDIFEQWAHSEDLQSLLLRVANAVSVKGIYKQMPGCFNFLRKKLFFKTS

Tested on: chimeric Caspase-9 polypeptide
Assay: Caspase mutant classes and basal activity (Table 3)
Format: cell-based, human
Details: class heading of Table 3

chimeric Caspase-9 polypeptide, sequence (as listed by the source, change not shown): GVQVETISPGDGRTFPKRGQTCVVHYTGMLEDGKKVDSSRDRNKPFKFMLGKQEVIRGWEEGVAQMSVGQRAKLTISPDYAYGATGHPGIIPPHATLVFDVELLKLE

Row | Molecule | Basal Activity
1 | B1 | Decreased
2 | B2 | Decreased
3 | B3 | Decreased
4 | B4 | Similar
5 | B5 | Similar
6 | B6 | Decreased
7 | B7 | Decreased
8 | B8 | Decreased
9 | B9 | Decreased
10 | B10 | Similar
11 | B11 | Decreased
12 | B12 | Similar

Same assay, conditions: class heading of Table 3; ligand IC50

Row | Molecule | IC50
13 | B1 | much higher
14 | B2 | much higher
15 | B3 | much higher
16 | B4 | Similar
17 | B5 | Similar
18 | B6 | much higher
19 | B7 | much higher
20 | B8 | much higher
21 | B9 | much higher
22 | B10 | Similar
23 | B11 | much higher
24 | B12 | Similar
